From patent US20250171562A1 (ALK ABELL, published 2025)

Target: T1, recombinant human IgE (human, UniProt P01854-1 1-428)
T1 construct: made in-house (ALK); preloaded on immobilised FcεRIα in the displacement ELISA
Test: IgE-FcεRIα displacement ELISA
Method: The displacement effect was tested using IgE-FcεRIα displacement ELISA assay. Maxisorp® microtiter plates (Thermo Scientific Nunc, Roskilde, Denmark) were coated with 100 μl streptavidin, 5 μg/ml (Thermo Scientific, Waltham, MA) for 18 h at 4° C. followed by wash with 300 μl washing buffer (PBS containing 0.05% Tween 20) using an AquaMax® 2000 plate washer (Molecular Devices, San Jose, CA). Remaining binding sites were blocked with 250 μl blocking buffer (PBS containing 2% BSA) for 2 h and washed with 300 μl washing buffer. Subsequently, the bound streptavidin was loaded with 100 μl (0.1 μg/ml) recombinant human FcεRIα (site specific biotinylated via avi-tag, made in-house, ALK, Hørsholm, Denmark) for 1 h and plates washed twice with 300 μl washing buffer. The bound receptor was then loaded with 100 μl recombinant human IgE (made in-house, ALK, Hørsholm, Denmark), 13 ng/ml (pre-titrated to reach an OD₄₅₀ signal in the range of 1.5-2.5 in the absence of displacement components) for 1h followed by three washes of 300 μl washing buffer.
displacement step: 100 μl sdAbs diluted in concentration series (pM-μM range) or blocking buffer only as a non-displacement negative control, were added to the ELISA wells and incubated for 1 h. Any IgE, displaced from the receptor by a sdAb was washed away by three washes of 300 μl washing buffer.
The ability of the various sdAbs to displace IgE from the receptor (FcεRIα) was evaluated by use of the ELISA based IgE-FcεRIα displacement assay. The percent displacement effect was calculated as the relative reduction in signal compared to the control with no sdAb added. The EC₅₀ values and the maximal effects were determined (table 15).

T1 sequence (P01854 other isoform, or with tags, fused parts or gaps): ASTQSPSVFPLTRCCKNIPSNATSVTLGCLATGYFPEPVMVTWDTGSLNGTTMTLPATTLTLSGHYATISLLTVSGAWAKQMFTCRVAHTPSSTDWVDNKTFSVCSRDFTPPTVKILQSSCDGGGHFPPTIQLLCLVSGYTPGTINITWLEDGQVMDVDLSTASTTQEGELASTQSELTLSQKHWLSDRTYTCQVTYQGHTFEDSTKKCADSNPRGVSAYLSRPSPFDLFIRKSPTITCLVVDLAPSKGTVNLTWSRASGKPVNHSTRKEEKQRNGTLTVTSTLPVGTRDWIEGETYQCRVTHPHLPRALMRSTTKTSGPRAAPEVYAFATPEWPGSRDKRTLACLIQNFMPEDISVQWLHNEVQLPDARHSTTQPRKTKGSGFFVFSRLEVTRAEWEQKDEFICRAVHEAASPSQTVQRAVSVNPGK

B1: CIgG4B1A1(RS) (Fc fusion)
chain 1: GPPCPPCPAPEFLGGPSVFLFPPKPKDTLMISRTPEVTCVVVDVSQEDPEVQFNWYVDGVEVHNAKTKPREEQFNSTYRVVSVLTVLHQDWLNGKEYKCKVSNKGLPSSIEKTISKAKGQPREPQVYTLPPCQEEMTKNQVSLWCLVKGFYPSDIAVEWESNGQPENNYKTTPPVLDSDGSFFLYSRLTVDKSRWQEGNVFSCSVMHEALHNHYTQKSLSLSLGKRSQVQLQESGGGLVQTGGSLRLSCAVHGRTFSNTGMGWFRQAPGNERQFVAIISPSGTSTYYADSVKGRFTISRDPAKNTVYLQMNSLKMDDTAVYYCAASYGSNWSTLRHQRRNEYDAWGQGTQVAVS
chain 2: GPPCPPCPAPEFLGGPSVFLFPPKPKDTLMISRTPEVTCVVVDVSQEDPEVQFNWYVDGVEVHNAKTKPREEQFNSTYRVVSVLTVLHQDWLNGKEYKCKVSNKGLPSSIEKTISKAKGQPREPQVCTLPPSQEEMTKNQVSLSCAVKGFYPSDIAVEWESNGQPENNYKTTPPVLDSDGSFFLVSRLTVDKSRWQEGNVFSCSVMHEALHNHYTQKSLSLSLGKRSEVQLLESGGGLVQPGGSLRLSCAASGFTFGNYDMAWVRQAPGKRPEWVSSIDTGGDITHYADSVKGRFTISRDNAKNTLYLQMNSLRPEDTAVYWCATDEEYALGPNEFDYYGQGTLVTVSS
Question: How did the EC50 turn out when B1 was run?
Answer: The EC50 was 9.8 nM.

Question: And the Max effect?
Answer: The Max effect was greater than 95%.

B2: CIgG4B1A1(G4S)1 (Fc fusion)
chain 1: GPPCPPCPAPEFLGGPSVFLFPPKPKDTLMISRTPEVTCVVVDVSQEDPEVQFNWYVDGVEVHNAKTKPREEQFNSTYRVVSVLTVLHQDWLNGKEYKCKVSNKGLPSSIEKTISKAKGQPREPQVYTLPPCQEEMTKNQVSLWCLVKGFYPSDIAVEWESNGQPENNYKTTPPVLDSDGSFFLYSRLTVDKSRWQEGNVFSCSVMHEALHNHYTQKSLSLSLGKGGGGSQVQLQESGGGLVQTGGSLRLSCAVHGRTFSNTGMGWFRQAPGNERQFVAIISPSGTSTYYADSVKGRFTISRDPAKNTVYLQMNSLKMDDTAVYYCAASYGSNWSTLRHQRRNEYDAWGQGTQVAVS
chain 2: GPPCPPCPAPEFLGGPSVFLFPPKPKDTLMISRTPEVTCVVVDVSQEDPEVQFNWYVDGVEVHNAKTKPREEQFNSTYRVVSVLTVLHQDWLNGKEYKCKVSNKGLPSSIEKTISKAKGQPREPQVCTLPPSQEEMTKNQVSLSCAVKGFYPSDIAVEWESNGQPENNYKTTPPVLDSDGSFFLVSRLTVDKSRWQEGNVFSCSVMHEALHNHYTQKSLSLSLGKGGGGSEVQLLESGGGLVQPGGSLRLSCAASGFTFGNYDMAWVRQAPGKRPEWVSSIDTGGDITHYADSVKGRFTISRDNAKNTLYLQMNSLRPEDTAVYWCATDEEYALGPNEFDYYGQGTLVTVSS
Question: Which results are given for B2?
Answer: EC50: 3.1 nM; Max effect: > 95%

B3: NIgG4A1A1(RS) (Fc fusion)
chain 1: EVQLLESGGGLVQPGGSLRLSCAASGFTFGNYDMAWVRQAPGKRPEWVSSIDTGGDITHYADSVKGRFTISRDNAKNTLYLQMNSLRPEDTAVYWCATDEEYALGPNEFDYYGQGTLVTVSSRSGPPCPPCPAPEFLGGPSVFLFPPKPKDTLMISRTPEVTCVVVDVSQEDPEVQFNWYVDGVEVHNAKTKPREEQFNSTYRVVSVLTVLHQDWLNGKEYKCKVSNKGLPSSIEKTISKAKGQPREPQVYTLPPCQEEMTKNQVSLWCLVKGFYPSDIAVEWESNGQPENNYKTTPPVLDSDGSFFLYSRLTVDKSRWQEGNVFSCSVMHEALHNHYTQKSLSLSLGK
chain 2: EVQLLESGGGLVQPGGSLRLSCAASGFTFGNYDMAWVRQAPGKRPEWVSSIDTGGDITHYADSVKGRFTISRDNAKNTLYLQMNSLRPEDTAVYWCATDEEYALGPNEFDYYGQGTLVTVSSRSGPPCPPCPAPEFLGGPSVFLFPPKPKDTLMISRTPEVTCVVVDVSQEDPEVQFNWYVDGVEVHNAKTKPREEQFNSTYRVVSVLTVLHQDWLNGKEYKCKVSNKGLPSSIEKTISKAKGQPREPQVCTLPPSQEEMTKNQVSLSCAVKGFYPSDIAVEWESNGQPENNYKTTPPVLDSDGSFFLVSRLTVDKSRWQEGNVFSCSVMHEALHNHYTQKSLSLSLGK
Question: For B3, which EC50 is on record?
Answer: The EC50 was 490 nM.

B4: NIgG4A1A1(G4S)2 (Fc fusion)
chain 1: EVQLLESGGGLVQPGGSLRLSCAASGFTFGNYDMAWVRQAPGKRPEWVSSIDTGGDITHYADSVKGRFTISRDNAKNTLYLQMNSLRPEDTAVYWCATDEEYALGPNEFDYYGQGTLVTVSSGGGGSGGGGSGPPCPPCPAPEFLGGPSVFLFPPKPKDTLMISRTPEVTCVVVDVSQEDPEVQFNWYVDGVEVHNAKTKPREEQFNSTYRVVSVLTVLHQDWLNGKEYKCKVSNKGLPSSIEKTISKAKGQPREPQVYTLPPCQEEMTKNQVSLWCLVKGFYPSDIAVEWESNGQPENNYKTTPPVLDSDGSFFLYSRLTVDKSRWQEGNVFSCSVMHEALHNHYTQKSLSLSLGK
chain 2: EVQLLESGGGLVQPGGSLRLSCAASGFTFGNYDMAWVRQAPGKRPEWVSSIDTGGDITHYADSVKGRFTISRDNAKNTLYLQMNSLRPEDTAVYWCATDEEYALGPNEFDYYGQGTLVTVSSGGGGSGGGGSGPPCPPCPAPEFLGGPSVFLFPPKPKDTLMISRTPEVTCVVVDVSQEDPEVQFNWYVDGVEVHNAKTKPREEQFNSTYRVVSVLTVLHQDWLNGKEYKCKVSNKGLPSSIEKTISKAKGQPREPQVCTLPPSQEEMTKNQVSLSCAVKGFYPSDIAVEWESNGQPENNYKTTPPVLDSDGSFFLVSRLTVDKSRWQEGNVFSCSVMHEALHNHYTQKSLSLSLGK
Question: B4 was tested. Which EC50 did it give?
Answer: Its EC50 is 230 nM.

B5: CIgG4B1A1(G4S3) (Fc fusion)
chain 1: GPPCPPCPAPEFLGGPSVFLFPPKPKDTLMISRTPEVTCVVVDVSQEDPEVQFNWYVDGVEVHNAKTKPREEQFNSTYRVVSVLTVLHQDWLNGKEYKCKVSNKGLPSSIEKTISKAKGQPREPQVYTLPPCQEEMTKNQVSLWCLVKGFYPSDIAVEWESNGQPENNYKTTPPVLDSDGSFFLYSRLTVDKSRWQEGNVFSCSVMHEALHNHYTQKSLSLSLGKGGGGSGGGGSGGGGSQVQLQESGGGLVQTGGSLRLSCAVHGRTFSNTGMGWFRQAPGNERQFVAIISPSGTSTYYADSVKGRFTISRDPAKNTVYLQMNSLKMDDTAVYYCAASYGSNWSTLRHQRRNEYDAWGQGTQVAVS
chain 2: GPPCPPCPAPEFLGGPSVFLFPPKPKDTLMISRTPEVTCVVVDVSQEDPEVQFNWYVDGVEVHNAKTKPREEQFNSTYRVVSVLTVLHQDWLNGKEYKCKVSNKGLPSSIEKTISKAKGQPREPQVCTLPPSQEEMTKNQVSLSCAVKGFYPSDIAVEWESNGQPENNYKTTPPVLDSDGSFFLVSRLTVDKSRWQEGNVFSCSVMHEALHNHYTQKSLSLSLGKGGGGSGGGGSGGGGSEVQLLESGGGLVQPGGSLRLSCAASGFTFGNYDMAWVRQAPGKRPEWVSSIDTGGDITHYADSVKGRFTISRDNAKNTLYLQMNSLRPEDTAVYWCATDEEYALGPNEFDYYGQGTLVTVSS
Question: With B5 as the binder, how does the EC50 read?
Answer: The EC50 was 3.5 nM.

Question: And the Max effect?
Answer: Its Max effect is greater than 95%.

B6: NIgG4A1A1(G4S)1 (Fc fusion)
chain 1: EVQLLESGGGLVQPGGSLRLSCAASGFTFGNYDMAWVRQAPGKRPEWVSSIDTGGDITHYADSVKGRFTISRDNAKNTLYLQMNSLRPEDTAVYWCATDEEYALGPNEFDYYGQGTLVTVSSGGGGSGPPCPPCPAPEFLGGPSVFLFPPKPKDTLMISRTPEVTCVVVDVSQEDPEVQFNWYVDGVEVHNAKTKPREEQFNSTYRVVSVLTVLHQDWLNGKEYKCKVSNKGLPSSIEKTISKAKGQPREPQVYTLPPCQEEMTKNQVSLWCLVKGFYPSDIAVEWESNGQPENNYKTTPPVLDSDGSFFLYSRLTVDKSRWQEGNVFSCSVMHEALHNHYTQKSLSLSLGK
chain 2: EVQLLESGGGLVQPGGSLRLSCAASGFTFGNYDMAWVRQAPGKRPEWVSSIDTGGDITHYADSVKGRFTISRDNAKNTLYLQMNSLRPEDTAVYWCATDEEYALGPNEFDYYGQGTLVTVSSGGGGSGPPCPPCPAPEFLGGPSVFLFPPKPKDTLMISRTPEVTCVVVDVSQEDPEVQFNWYVDGVEVHNAKTKPREEQFNSTYRVVSVLTVLHQDWLNGKEYKCKVSNKGLPSSIEKTISKAKGQPREPQVCTLPPSQEEMTKNQVSLSCAVKGFYPSDIAVEWESNGQPENNYKTTPPVLDSDGSFFLVSRLTVDKSRWQEGNVFSCSVMHEALHNHYTQKSLSLSLGK
Question: For B6, which EC50 is on record?
Answer: The EC50 was 260 nM.

B7: CIgG4B1A1(G4S)2 (Fc fusion)
chain 1: GPPCPPCPAPEFLGGPSVFLFPPKPKDTLMISRTPEVTCVVVDVSQEDPEVQFNWYVDGVEVHNAKTKPREEQFNSTYRVVSVLTVLHQDWLNGKEYKCKVSNKGLPSSIEKTISKAKGQPREPQVYTLPPCQEEMTKNQVSLWCLVKGFYPSDIAVEWESNGQPENNYKTTPPVLDSDGSFFLYSRLTVDKSRWQEGNVFSCSVMHEALHNHYTQKSLSLSLGKGGGGSGGGGSQVQLQESGGGLVQTGGSLRLSCAVHGRTFSNTGMGWFRQAPGNERQFVAIISPSGTSTYYADSVKGRFTISRDPAKNTVYLQMNSLKMDDTAVYYCAASYGSNWSTLRHQRRNEYDAWGQGTQVAVS
chain 2: GPPCPPCPAPEFLGGPSVFLFPPKPKDTLMISRTPEVTCVVVDVSQEDPEVQFNWYVDGVEVHNAKTKPREEQFNSTYRVVSVLTVLHQDWLNGKEYKCKVSNKGLPSSIEKTISKAKGQPREPQVCTLPPSQEEMTKNQVSLSCAVKGFYPSDIAVEWESNGQPENNYKTTPPVLDSDGSFFLVSRLTVDKSRWQEGNVFSCSVMHEALHNHYTQKSLSLSLGKGGGGSGGGGSEVQLLESGGGLVQPGGSLRLSCAASGFTFGNYDMAWVRQAPGKRPEWVSSIDTGGDITHYADSVKGRFTISRDNAKNTLYLQMNSLRPEDTAVYWCATDEEYALGPNEFDYYGQGTLVTVSS
Question: For B7, which EC50 is on record?
Answer: Its EC50 is 4 nM.

Question: And the Max effect?
Answer: The Max effect was greater than 95%.
